In publication doi:10.1101/2021.09.16.460631:

Experiments:
Assay in all cases: EMSA
[1] = tested on: Protamine 1 (WT P1) (Mus musculus (C57BL/6N background))
[2] = tested on: Protamine 1 K49A (Mus musculus (C57BL/6N, P1 K49A/K49A knock-in))
[3] = tested on: Protamine 2 precursor (pro P2) (Mus musculus (C57BL/6N, P1 K49A/K49A knock-in))
[4] = tested on: Protamine 2, mature (WT P2) (Mus musculus (C57BL/6N background))

Substance: ~300 bp linear DNA (280 bp PCR product)
- Kd [1]: 680 nM
- Kd [2]: 950 nM
- Kd [3]: 840 nM
- Kd [4]: 670 nM
